Experimental data published in US20160122426A1 (DONG A SOCIO, published 2016).
Changes are numbered by the printed parent chain.

T1: human VEGF-B (human, UniProt P49765-2 22-188, limits assumed)
T1 construct: also called hVEGF-B
T1 sequence (looked up): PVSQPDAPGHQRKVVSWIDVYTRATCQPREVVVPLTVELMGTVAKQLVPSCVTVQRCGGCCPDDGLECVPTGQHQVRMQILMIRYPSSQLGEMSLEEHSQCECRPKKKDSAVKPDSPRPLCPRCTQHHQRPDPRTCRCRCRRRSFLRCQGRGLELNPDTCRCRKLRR

T2: human VEGF-C (human, UniProt P49767 103-227, limits assumed)
T2 construct: also called hVEGF-C
T2 sequence (looked up): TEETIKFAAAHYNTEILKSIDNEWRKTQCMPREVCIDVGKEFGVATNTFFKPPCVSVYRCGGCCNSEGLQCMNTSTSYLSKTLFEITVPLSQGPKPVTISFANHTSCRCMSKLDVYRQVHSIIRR

T3: human placental growth factor (human, UniProt P49763-2 21-149, limits assumed)
T3 construct: also called PlGF; PIGF
T3 sequence (looked up): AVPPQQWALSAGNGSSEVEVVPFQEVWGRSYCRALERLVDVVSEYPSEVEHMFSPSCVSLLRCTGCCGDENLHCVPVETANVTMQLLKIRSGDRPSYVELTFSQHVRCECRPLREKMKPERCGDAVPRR

T4: human VEGF-D (human, UniProt O43915 93-201, limits assumed)
T4 construct: also called hVEGF-D
T4 sequence (looked up): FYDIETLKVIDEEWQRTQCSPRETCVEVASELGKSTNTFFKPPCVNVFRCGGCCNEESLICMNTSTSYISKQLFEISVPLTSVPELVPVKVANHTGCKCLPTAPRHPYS

T5: mouse VEGF (mouse, UniProt Q00731-2 27-190)
T5 construct: Bought recombinant protein; also called mVEGF-A; mouse VEGF-A
T5 sequence (looked up): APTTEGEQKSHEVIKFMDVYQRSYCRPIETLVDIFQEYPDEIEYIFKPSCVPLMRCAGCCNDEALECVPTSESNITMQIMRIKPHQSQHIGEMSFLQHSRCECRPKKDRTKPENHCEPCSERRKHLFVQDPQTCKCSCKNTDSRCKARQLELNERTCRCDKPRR

B1: HF2-1 (antibody, V domains shown)
VH: EVQLVESGGGLVQPGGSLRLSCAASNFVFRSHGMQWVRQAPGKGLEYVAGISSDGSWTGYGAAVEGRFTISRDDSKNTAYLQMNSLRAEDTAVYYCARDFSTGYGADSIDAWGQGTLVTVSS
VL: DIQMTQSPSSLSASVGDRVTITCSGGSDSAYGYGWYQQKPGKAPKTLIYWDDKRPSGVPSRFSGSRSGTDFTLTISSLQPEDFATYYCGAWEYSGGVGIFGQGTKVEIK
notes: also called HF-1
B2: HF2-14 (antibody, V domains shown)
VH: B1 VH with N26H, F27S, V28S, F29I, T58L, G59R, Y60Q, G61D
VL: B1 VL
B3: HF2-18 (antibody, V domains shown)
VH: B1 VH with N26Y, F27W, V28A, T58F, G59S, Y60S, G61A
VL: B1 VL with D28I, S29E, A30P, Y31L
B4: HF2-12 (antibody, V domains shown)
VH: B1 VH with N26Y, F27S, V28E, F29V, T58F, G59R, Y60V, G61A
VL: B1 VL with D28M, S29E, A30P, Y31L
B5: HF2-3 (antibody, V domains shown)
VH: B1 VH with N26H, V28N, F29M, T58F, G59R, Y60V, G61A
VL: B1 VL with V58A
notes: also called HF-3
B6: HF2-7 (antibody, V domains shown)
VH: B1 VH with N26Q, V28W, F29I, T58F, G59R, Y60V, G61A
VL: B1 VL with D28M, S29E, A30P, Y31L
B7: HF2-24 (antibody, V domains shown)
VH: B1 VH with N26R, V28N, F29M, T58V, G59K, Y60V, G61A
VL: B1 VL with D28Q, S29E, A30S, Y31L
B8: HF2-6 (antibody, V domains shown)
VH: B1 VH with N26R, V28L, F29L, T58F, G59R, Y60V, G61A
VL: B1 VL with D28M, S29E, A30P, Y31L
B9: HF2-17 (antibody, V domains shown)
VH: B1 VH with N26G, V28M, F29I, T58R, G59R, Y60H, G61S
VL: B1 VL with D28I, S29E, A30P, Y31L
B10: HF2-15 (antibody, V domains shown)
VH: B1 VH with N26G, F29V, T58K, G59A, Y60T, G61A
VL: B1 VL with D28Q, S29E, A30S, Y31L
B11: HF2-13 (antibody, V domains shown)
VH: B1 VH with N26G, V28L, F29V, T58Q, G59R, Y60V, G61N
VL: B1 VL with S29L, A30L, Y31L
B12: HF2-10 (antibody, V domains shown)
VH: B1 VH with N26F, F27Q, V28Y, T58F, G59R, Y60V, G61A
VL: B1 VL with D28M, S29E, A30P, Y31L
B13: HF2-21 (antibody, V domains shown)
VH: B1 VH with N26F, F27Q, V28Y, T58Y, G59R, Y60V, G61Q
VL: B1 VL with D28M, S29E, A30P, Y31L
B14: HF2-16 (antibody, V domains shown)
VH: B1 VH with N26G, V28R, F29I, T58V, G59K, Y60V, G61A
VL: B1 VL with D28I, S29E, A30P, Y31L
B15: HF2-23 (antibody, V domains shown)
VH: B1 VH with N26G, V28R, F29I, T58F, G59S, Y60S, G61A
VL: B1 VL with S29L, A30L, Y31L
B16: HF2-20 (antibody, V domains shown)
VH: B1 VH with N26Y, F27M, V28E, F29Y, T58S, G59R, Y60V, G61D
VL: B1 VL
B17: HF2-22 (antibody, V domains shown)
VH: B1 VH with N26G, V28R, F29I, T58F, G59R, Y60V, G61A
VL: B1 VL with D28T, S29A, A30G, Y31V
B18: HF2-2 (antibody, V domains shown)
VH: B1 VH with N26R, V28N, F29M, T58E, G59R, Y60V
VL: B1 VL

molecular target: T1, human VEGF-B; test: ELISA, 0.2 ug/ml protein coated, anti-human IgG-Fab-HRP, absorbance 650 nm; antibody concentration not shown
Description: (§1) 0.2 μg/ml each of the respective proteins (hVEGF-A, mVEGF-A, hVEGF-B, hVEGF-C, hVEGF-D and PlGF) (R&D systems) were coated to the wells of ELISA plate, respectively. After blocking them with PBS containing 3% BSA and 0.05% Tween 20 for 30 min at 37° C., antibody clone proteins of increasing concentrations were incubated at 37° C. for 2 hr. Then, the wells were washed with PBS containing 3% BSA and 0.05% Tween 20 for 3 times, and anti-human IgG-Fab-HRP conjugate (Jackson Immunoresearch, USA) was added thereto and incubated for 1 hr at room temperature. Then they were washed with PBS containing 3% BSA and 0.05% Tween 20 for 3 times, and developed using TMB, and absorbance was measured at 650 nm.

binding result | Binder
no binding | B1

molecular target: T2, human VEGF-C; test: as above
Description: as §1

binding result | Binder
no binding | B1

molecular target: T3, human placental growth factor; test: as above
Description: as §1

binding result | Binder
no binding | B1

molecular target: T4, human VEGF-D; test: as above
Description: as §1

binding result | Binder
no binding | B1

molecular target: T6, human VEGF (human, UniProt P15692-4 27-191); test: competition ELISA: human VEGF coated, 9 nM KDR ECD IgG-Fc (VEGFR2) added together with the antibody, bound receptor-Fc detected, absorbance 405 nm
T6 construct: Bought recombinant protein; also called hVEGF; human VEGF-A
Description: 0.5 μg/ml of human VEGF was coated to 96-well ELISA plate and blocked with PBS solution containing 3% BSA and 0.05% Tween 20.

IC50 (read off the curve) [nM] | Binder
~5 | B1

molecular target: T6, human VEGF; test: ELISA and BIAcore

fold affinity over mother clone F [times] | Binder
≥ 10 | B1
≥ 10 | B2
≥ 10 | B3
≥ 10 | B4
≥ 10 | B5
≥ 10 | B6
≥ 10 | B7
≥ 10 | B8
≥ 10 | B9
≥ 10 | B10
≥ 10 | B11
≥ 10 | B12
≥ 10 | B13
≥ 10 | B14
≥ 10 | B15
≥ 10 | B16
≥ 10 | B17
≥ 10 | B18

molecular target: T5, mouse VEGF; test: ELISA and BIAcore

fold affinity over mother clone F [times] | Binder
≥ 10 | B1
≥ 10 | B2
≥ 10 | B3
≥ 10 | B4
≥ 10 | B5
≥ 10 | B6
≥ 10 | B7
≥ 10 | B8
≥ 10 | B9
≥ 10 | B10
≥ 10 | B11
≥ 10 | B12
≥ 10 | B13
≥ 10 | B14
≥ 10 | B15
≥ 10 | B16
≥ 10 | B17
≥ 10 | B18

molecular target: T6, human VEGF; test: SPR (BIAcore X100), VEGF on CM5 chip, IgG injected, 1:1 Langmuir
Excerpt: Meanwhile, to measure the affinity, human VEGF and mouse VEGF were coupled to carboxymethylated dextran biosensor chips (CM5, GE) according to the manufacturer's instructions.
The association and dissociation rates were expressed by the association and dissociation sensorgram, and calculated using a simple 1:1 Langmuir binding model (BIAcore X100 evaluation software, ver. 2.0).

Kd [pM] | koff [s⁻¹] | kon [M⁻¹ s⁻¹] | Binder
< 1 | < 1e-06 | 2.5e+06 | B1
< 1 | < 1e-06 | 1.3e+06 | B2
< 1 | < 1e-06 | 1.3e+06 | B5
16 | 2.7e-05 | 1.6e+06 | B6
< 1 | < 1e-06 | 1.6e+06 | B8
≤ 9 | ≤ 1e-05 | 1.4e+06 | B11
< 1 | < 1e-06 | 1.6e+06 | B12
< 1 | < 1e-06 | 1.1e+06 | B18

molecular target: T5, mouse VEGF; test: ELISA, mouse VEGF coated, anti-human Fc-HRP, absorbance 450 nm [a]

EC50 (read off the curve) [ng/mL] | Binder
~80 | B1
